This is an account of results in patent publication US20160136299A1 (published 2016).

Usually koff stands for a measure of how fast the partners let go of each other. Low values mean a long-lived complex, high ones a short-lived complex. As a reminder, the Kd is the concentration at which binding is half-saturated.

Assay [1] concerns the target Control enzyme (S4). Description: SPR. (In general: Surface plasmon resonance follows binding to a sensor surface in real time, without labels.)
Assay [2] has as its target SAM conjugate (~0.8 GalNAc) (S9). Description: SPR; ~0.8 GalNAc.
The target in assay [3] is SAM conjugate (~1.6 GalNAc) (S10). Nature of the assay: SPR; ~1.6 GalNAc.
Assay [4] addresses SAM conjugate (~8 gp) (S5). Description: SPR; trivalent galactose glycopeptide conjugate.
Assay [5] addresses CD-52 peptide 741. Description: SPR.
Assay [6] has as its target CD-52 peptide 741. Description: SPR. The source holds these as a separate data set.

Where two headings read alike, the source gives them in different places.

B1: ASGPR receptor subunit H1 (receptor)
chain: QNSQLQEELRGLRETFSNFTASTEAQVKGLSTQGGNVGRKMKSLESQLEKQQKDLSEDHSSLLLHVKQFVSDLRSLSCQMAALQGNGSERTCCPVNWVEHERSCYWFSRSGKAWADADNYCRLEDAHLVVVTSWEEQKFVQHHIGPVNTWMGLHDQNGPWKWVDGTDYETGFKNWRPEQPDDWYGHGLGGGEDCAHFTDDGRWNDDVCQRPYRWVCETELDKASQEPPLL
For B1, the koff in assay [1] came to 0.0515 s⁻¹; in assay [2], 0.00107 s⁻¹; in assay [3] it was 0.000296 s⁻¹; in assay [4] it was 0.0387 s⁻¹.

B2: A114N (antibody)
heavy: not shown
light: DIVMTQTPLSLSVTPGQPASISCKSSQSLLYSNGKTYLNWLLQKPGQSPQRLIYLVSKLDSGVPDRFSGSGSGTDFTLKISRVEAEDVGVYYCVQGTHLHTFGQGTRLEIKRTVAAPSVFIFPPSDEQLKSGTASVVCLLNNFYPREAKVQWKVDNALQSGNSQESVTEQDSKDSTYSLSSTLTLSKADYEKHKVYACEVTHQGLSSPVTKSFNRGEC
modifications: additional N-linked glycan at N114 (Kabat)
Molecule B2 showed a Kd in assay [5] of 2.4 nM.

B3: Y436T (antibody)
heavy: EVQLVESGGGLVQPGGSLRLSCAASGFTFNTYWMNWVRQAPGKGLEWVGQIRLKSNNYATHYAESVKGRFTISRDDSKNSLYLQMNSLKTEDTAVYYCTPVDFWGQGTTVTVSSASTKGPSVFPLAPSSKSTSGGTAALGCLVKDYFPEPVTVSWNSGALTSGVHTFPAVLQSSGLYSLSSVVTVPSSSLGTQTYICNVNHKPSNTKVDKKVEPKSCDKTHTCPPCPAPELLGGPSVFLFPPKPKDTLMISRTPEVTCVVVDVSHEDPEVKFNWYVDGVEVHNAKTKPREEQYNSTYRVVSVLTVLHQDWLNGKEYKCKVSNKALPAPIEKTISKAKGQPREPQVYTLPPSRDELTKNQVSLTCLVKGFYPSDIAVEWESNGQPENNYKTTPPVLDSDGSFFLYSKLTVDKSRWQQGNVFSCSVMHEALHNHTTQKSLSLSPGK
light: DIVMTQTPLSLSVTPGQPASISCKSSQSLLYSNGKTYLNWLLQKPGQSPQRLIYLVSKLDSGVPDRFSGSGSGTDFTLKISRVEAEDVGVYYCVQGTHLHTFGQGTRLEIKRTVAAPSVFIFPPSDEQLKSGTASVVCLLNNFYPREAKVQWKVDNALQSGNSQESVTEQDSKDSTYSLSSTLTLSKADYEKHKVYACEVTHQGLSSPVTKSFNRGEC
B3 returned a Kd in assay [6] of 1.95 nM.

B4: S442N (antibody)
heavy: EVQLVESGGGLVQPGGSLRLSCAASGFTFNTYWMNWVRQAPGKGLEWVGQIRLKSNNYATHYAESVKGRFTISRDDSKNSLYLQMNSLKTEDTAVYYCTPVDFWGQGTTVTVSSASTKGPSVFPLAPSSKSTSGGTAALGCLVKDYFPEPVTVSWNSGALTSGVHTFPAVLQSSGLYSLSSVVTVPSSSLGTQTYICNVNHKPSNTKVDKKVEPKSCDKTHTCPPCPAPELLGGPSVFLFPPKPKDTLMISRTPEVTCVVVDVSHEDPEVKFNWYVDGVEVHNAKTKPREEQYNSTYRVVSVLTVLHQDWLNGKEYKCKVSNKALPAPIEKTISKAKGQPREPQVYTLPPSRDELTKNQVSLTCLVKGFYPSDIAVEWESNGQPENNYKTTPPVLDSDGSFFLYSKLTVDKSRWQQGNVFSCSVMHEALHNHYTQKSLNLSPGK
light: DIVMTQTPLSLSVTPGQPASISCKSSQSLLYSNGKTYLNWLLQKPGQSPQRLIYLVSKLDSGVPDRFSGSGSGTDFTLKISRVEAEDVGVYYCVQGTHLHTFGQGTRLEIKRTVAAPSVFIFPPSDEQLKSGTASVVCLLNNFYPREAKVQWKVDNALQSGNSQESVTEQDSKDSTYSLSSTLTLSKADYEKHKVYACEVTHQGLSSPVTKSFNRGEC
Molecule B4 showed a dissociation constant (Kd) in assay [6] of 1.85 nM.

B5: NGT (antibody)
heavy: not shown
light: DIVMTQTPLSLSVTPGQPASISCKSSQSLLYSNGKTYLNWLLQKPGQSPQRLIYLVSKLDSGVPDRFSGSGSGTDFTLKISRVEAEDVGVYYCVQGTHLHTFGQGTRLEIKRTVAAPSVFIFPPSDEQLKSGTASVVCLLNNFYPREAKVQWKVDNALQSGNSQESVTEQDSKDSTYSLSSTLTLSKADYEKHKVYACEVTHQGLSSPVTKSFNRGEC
B5 showed a Kd in assay [6] of 1.35 nM.

B6: S298N/Y300S (antibody)
heavy: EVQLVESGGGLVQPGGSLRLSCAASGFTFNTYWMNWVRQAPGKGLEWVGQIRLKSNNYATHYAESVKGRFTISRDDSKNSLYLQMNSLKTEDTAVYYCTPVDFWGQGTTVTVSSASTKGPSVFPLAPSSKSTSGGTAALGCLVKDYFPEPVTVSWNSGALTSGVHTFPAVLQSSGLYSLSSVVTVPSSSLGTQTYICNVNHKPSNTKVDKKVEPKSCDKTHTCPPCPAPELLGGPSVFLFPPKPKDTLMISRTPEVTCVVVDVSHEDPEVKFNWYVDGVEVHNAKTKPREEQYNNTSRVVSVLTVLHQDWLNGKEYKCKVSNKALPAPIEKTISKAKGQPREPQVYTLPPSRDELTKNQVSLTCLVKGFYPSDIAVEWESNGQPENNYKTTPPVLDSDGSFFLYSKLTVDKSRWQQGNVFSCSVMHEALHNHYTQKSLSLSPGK
light: DIVMTQTPLSLSVTPGQPASISCKSSQSLLYSNGKTYLNWLLQKPGQSPQRLIYLVSKLDSGVPDRFSGSGSGTDFTLKISRVEAEDVGVYYCVQGTHLHTFGQGTRLEIKRTVAAPSVFIFPPSDEQLKSGTASVVCLLNNFYPREAKVQWKVDNALQSGNSQESVTEQDSKDSTYSLSSTLTLSKADYEKHKVYACEVTHQGLSSPVTKSFNRGEC
For B6, the Kd in assay [6] worked out at 1.8 nM.

B7: Y436S (antibody)
heavy: not shown
light: DIVMTQTPLSLSVTPGQPASISCKSSQSLLYSNGKTYLNWLLQKPGQSPQRLIYLVSKLDSGVPDRFSGSGSGTDFTLKISRVEAEDVGVYYCVQGTHLHTFGQGTRLEIKRTVAAPSVFIFPPSDEQLKSGTASVVCLLNNFYPREAKVQWKVDNALQSGNSQESVTEQDSKDSTYSLSSTLTLSKADYEKHKVYACEVTHQGLSSPVTKSFNRGEC
B7: binding in assay [6] was characterised by a dissociation constant (Kd) of 1.73 nM.

B8: WT 2C3 (antibody)
heavy: not shown
light: DIVMTQTPLSLSVTPGQPASISCKSSQSLLYSNGKTYLNWLLQKPGQSPQRLIYLVSKLDSGVPDRFSGSGSGTDFTLKISRVEAEDVGVYYCVQGTHLHTFGQGTRLEIKRTVAAPSVFIFPPSDEQLKSGTASVVCLLNNFYPREAKVQWKVDNALQSGNSQESVTEQDSKDSTYSLSSTLTLSKADYEKHKVYACEVTHQGLSSPVTKSFNRGEC
Regarding B8, the Kd in assay [6] was 1.75 nM; in assay [5], 2.1 nM.

B9: S440N (antibody)
heavy: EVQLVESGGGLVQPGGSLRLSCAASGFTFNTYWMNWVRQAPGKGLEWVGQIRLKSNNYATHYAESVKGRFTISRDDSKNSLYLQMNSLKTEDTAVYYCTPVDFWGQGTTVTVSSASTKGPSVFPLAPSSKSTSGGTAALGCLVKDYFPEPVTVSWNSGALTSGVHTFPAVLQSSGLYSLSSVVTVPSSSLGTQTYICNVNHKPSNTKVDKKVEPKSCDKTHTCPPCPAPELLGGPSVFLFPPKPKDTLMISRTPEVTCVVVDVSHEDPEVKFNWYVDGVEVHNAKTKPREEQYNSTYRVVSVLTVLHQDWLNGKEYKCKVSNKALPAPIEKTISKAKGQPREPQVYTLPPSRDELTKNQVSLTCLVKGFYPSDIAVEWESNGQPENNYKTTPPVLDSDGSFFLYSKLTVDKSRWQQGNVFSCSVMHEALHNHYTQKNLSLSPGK
light: DIVMTQTPLSLSVTPGQPASISCKSSQSLLYSNGKTYLNWLLQKPGQSPQRLIYLVSKLDSGVPDRFSGSGSGTDFTLKISRVEAEDVGVYYCVQGTHLHTFGQGTRLEIKRTVAAPSVFIFPPSDEQLKSGTASVVCLLNNFYPREAKVQWKVDNALQSGNSQESVTEQDSKDSTYSLSSTLTLSKADYEKHKVYACEVTHQGLSSPVTKSFNRGEC
In assay [6], B9 registered an equilibrium dissociation constant (Kd) of 1.84 nM.
